Results published in article PMC3695512, “Recognition of two distinct elements in the RNA substrate by the RNA-binding domain of the T. thermophilus DEAD box helicase Hera”.
Numbering of substitutions follows the chain as printed.

What was measured:
[1] = molecular target: T1, Hera_RBD_dC-tail (Thermus thermophilus, UniProt O07897 424-491, del492-510); assay: fluorescence anisotropy; 5 mM Mg2+; Anisotropy: 50 mM Tris/HCl pH 7.5, 150 mM NaCl, 5 mM MgCl2 (Fig 2), 25 C, 50 nM RNA; EMSA: same Tris/NaCl, 12% glycerol, 25 C; NMR: 25 mM Bis-Tris/HCl pH 6.0, 50 mM NaCl, 10% D2O, 37 C; details: protein: recombinant; label: 5'-fluorescein; hairpin with 5' single strand
T1 sequence: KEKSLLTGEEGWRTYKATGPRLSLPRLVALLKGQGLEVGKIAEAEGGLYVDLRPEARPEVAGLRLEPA

[2] = molecular target: T2, Hera_K463A (Thermus thermophilus, UniProt O07897 1-510, K463A); assay: as above; details: protein: recombinant; chain copies: 2; label: 5'-fluorescein; hairpin with 5' single strand
T2 sequence: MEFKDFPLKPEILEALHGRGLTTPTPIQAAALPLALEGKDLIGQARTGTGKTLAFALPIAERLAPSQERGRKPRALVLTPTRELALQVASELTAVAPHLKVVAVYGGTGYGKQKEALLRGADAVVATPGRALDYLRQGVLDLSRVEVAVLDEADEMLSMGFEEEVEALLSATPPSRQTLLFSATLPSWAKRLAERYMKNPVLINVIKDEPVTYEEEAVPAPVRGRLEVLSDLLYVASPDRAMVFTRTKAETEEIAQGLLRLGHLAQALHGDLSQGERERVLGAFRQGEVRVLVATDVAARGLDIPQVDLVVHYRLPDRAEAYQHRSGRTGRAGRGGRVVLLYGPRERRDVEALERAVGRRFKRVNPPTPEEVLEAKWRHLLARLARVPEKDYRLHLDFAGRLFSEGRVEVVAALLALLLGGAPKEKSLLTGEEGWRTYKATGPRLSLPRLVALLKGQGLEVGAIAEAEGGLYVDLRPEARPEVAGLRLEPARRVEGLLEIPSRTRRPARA

[3] = molecular target: T3, Hera_1-491 (Thermus thermophilus, UniProt O07897 1-491, del492-510); assay: as above; details: protein: recombinant; chain copies: 2; label: 5'-fluorescein; hairpin with 5' single strand
T3 sequence: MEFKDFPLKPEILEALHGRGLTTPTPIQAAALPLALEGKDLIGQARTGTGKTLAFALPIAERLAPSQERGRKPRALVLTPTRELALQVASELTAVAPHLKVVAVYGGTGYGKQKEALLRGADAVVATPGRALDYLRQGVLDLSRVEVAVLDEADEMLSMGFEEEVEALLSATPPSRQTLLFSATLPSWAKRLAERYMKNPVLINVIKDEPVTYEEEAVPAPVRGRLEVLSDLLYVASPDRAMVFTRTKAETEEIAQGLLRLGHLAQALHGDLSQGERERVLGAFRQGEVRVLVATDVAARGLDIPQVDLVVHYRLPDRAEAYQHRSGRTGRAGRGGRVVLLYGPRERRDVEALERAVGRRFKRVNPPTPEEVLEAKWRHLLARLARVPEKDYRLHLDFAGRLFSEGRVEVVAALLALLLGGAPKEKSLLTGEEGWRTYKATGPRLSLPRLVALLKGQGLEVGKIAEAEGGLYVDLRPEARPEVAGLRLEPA

[4] = molecular target: T4, Hera_RBD R492A (Thermus thermophilus, UniProt O07897 424-510, R492A); assay: as above; details: protein: recombinant; label: 5'-fluorescein; hairpin with 5' single strand
T4 sequence: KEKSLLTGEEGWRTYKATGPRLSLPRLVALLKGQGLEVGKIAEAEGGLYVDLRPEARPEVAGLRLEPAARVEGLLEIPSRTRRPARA

[5] = molecular target: T5, Hera_RBD S446C (Thermus thermophilus, UniProt O07897 424-510, S446C); assay: as above; details: protein: recombinant; label: 5'-fluorescein; hairpin with 5' single strand
T5 sequence: T4 sequence with S23C, A69R

[6] = molecular target: T6, Hera_RBD A452C (Thermus thermophilus, UniProt O07897 424-510, A452C); assay: as above; details: protein: recombinant; label: 5'-fluorescein; hairpin with 5' single strand
T6 sequence: T4 sequence with A29C, A69R

[7] = molecular target: T7, Hera_RBD G462C (Thermus thermophilus, UniProt O07897 424-510, G462C); assay: fluorescence anisotropy; 5 mM Mg2+; negligible effect; Anisotropy: 50 mM Tris/HCl pH 7.5, 150 mM NaCl, 5 mM MgCl2 (Fig 2), 25 C, 50 nM RNA; EMSA: same Tris/NaCl, 12% glycerol, 25 C; NMR: 25 mM Bis-Tris/HCl pH 6.0, 50 mM NaCl, 10% D2O, 37 C; details: protein: recombinant; label: 5'-fluorescein; hairpin with 5' single strand
T7 sequence: T4 sequence with G39C, A69R

Binder: GCAGGUCCCAAGGGUUGGGCUGUUCGCCCAUU (structured_RNA) [32mer]
- Kd [1]: 13000 nM
- Kd [2]: 1000 ± 170 nM
- Kd [3]: 1100 ± 130 nM
- binding signal [4]: < 5 fold Kd increase
- binding signal [5]: < 5 fold Kd increase
- binding signal [6]: ~10 fold Kd increase
- binding signal [7]: < 5 fold Kd increase
